The source of these data is patent EP4349858A1 (CentricsBio, Inc., dated 2024).

For assay [1], the target named is T1, mouse CD300c antigen (mouse).
T1 sequence (A2A7V7 whole entry, looked up): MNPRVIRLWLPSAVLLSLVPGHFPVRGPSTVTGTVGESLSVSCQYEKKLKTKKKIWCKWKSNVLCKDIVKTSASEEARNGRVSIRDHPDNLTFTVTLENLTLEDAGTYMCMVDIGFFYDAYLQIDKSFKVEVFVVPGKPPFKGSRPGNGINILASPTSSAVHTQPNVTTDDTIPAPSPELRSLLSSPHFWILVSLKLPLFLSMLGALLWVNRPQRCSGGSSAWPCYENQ
Put plainly: cell-based or functional assay.

For assay [2], the target named is T2, CD300c antigen (11832-H08H, Sino Biological) (UniProt Q08708 21-183).
T2 construct: Bought recombinant antigen coated on ELISA plates; the same entry is used for it
T2 sequence (looked up): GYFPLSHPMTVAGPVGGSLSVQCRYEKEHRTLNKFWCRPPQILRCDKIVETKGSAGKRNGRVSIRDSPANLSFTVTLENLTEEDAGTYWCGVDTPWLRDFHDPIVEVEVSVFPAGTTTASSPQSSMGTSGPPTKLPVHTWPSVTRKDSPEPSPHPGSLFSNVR
Put plainly: binding ELISA, CD300c antigen coated.

In assay [3] the target is T3, CD300a antigen (12449-H08H, Sino Biological) (UniProt Q9UGN4 18-180).
T3 construct: Bought recombinant antigen
T3 sequence (looked up): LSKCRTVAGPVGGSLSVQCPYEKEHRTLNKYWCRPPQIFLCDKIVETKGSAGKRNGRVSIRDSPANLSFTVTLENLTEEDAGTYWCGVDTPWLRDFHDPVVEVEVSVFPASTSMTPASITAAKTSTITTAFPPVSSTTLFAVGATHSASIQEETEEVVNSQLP
Put plainly: binding ELISA, antigen coated on plate. In general terms: ELISA stands for enzyme-linked immunosorbent assay.

B1: anti-CD300c monoclonal antibody CL10 (antibody, V domains shown)
VH: EVQLLESGGGLVQPGGSLRLSCAASGFTFSSYGMHWVRQAPGKGLEWVSAISGSGGSTYYADSVKGRFTISRDNSKNTLYLQMNSLRAEDTAVYYCASGYGLMDVWGQGTLVTVSS
VL: QSVLTQPPSASGTPGQRVTISCTRSSGIIASNYVQWYQQLPGTAPKLLIYRNNQRPSGVPDRFSGSKSGTSASLAISGLRSEDEADYYCSSYAGNNNLVFGGGTKLTVL
notes: expressed as heavy and light chains in 293T cells, protein A purified
For B1, the “cancer cell proliferation inhibitory effect, CT26 mouse colorectal cancer cell line, CCK-8, 10 ug/mL antibody, 5 days” value in assay [1] worked out at 15%. Further, the EC50 in assay [2] was no more than 0.2 µg/mL.

B2: anti-CD300c monoclonal antibody SK11 (antibody, V domains shown)
VH: RVQLLESGGGLVQPGGSLRLSCAASGFTFSTYGMHWVRQAPGKGLEWVSAISGSGGSTYYADSVKGRFTISRDNSKNTLYLQMNSLRAEDTAVYYCARGLSGLDYWGQGTLVTVSS
VL: EIVLTQSPGTLSLSPGERATLSCRSSQGITNYLAWYQQKPGQAPRLLIYDASNRATGIPDRFSGSGSGTDFTLTISRLEPEDFAVYYCQQSYSTPLTFGQGTKVEIK
notes: as for B1
In the case of B2, the EC50 in assay [2] is no more than 0.2 µg/mL.

B3: anti-CD300c monoclonal antibody CK2 (antibody, V domains shown)
VH: EVQLLESGGGLVQPGGSLRLSCAASGFTFSSYGMHWVRQAPGKGLEWVSAISGSGTSIYYADSVKGRFTISRDNSKNTLYLQMNSLRAEDTAVYYCARGGTAFDYWGQGTLVTVSS
VL: EIVLTQSPGTLSLSPGERATLSCRASQRSDNYLAWYQQKPGQAPRLLIYDASNRATGIPDRFSGSGSGTDFTLTISRLEPEDFAVYYCQQSYSTPFTFGQGTKVETK
notes: as for B1
In assay [2], B3 registered an EC50 of no more than 0.2 µg/mL.

B4: anti-CD300c monoclonal antibody CL5 (antibody, V domains shown)
VH: RVQLLESGGGLVQPGGSLRLSCAASGFTFSSYAMHWVRQAPGKGLEWVSSISGGGYGTYYADSVKGRFTISRDNSKNTLYLQMNSLRAEDTAVYYCARSTVWAFDIWGQGTLVTVSS
VL: QSVLTQPPSASGTPGQRVTISCSGNNIGSKSVHWYQQLPGTAPKLLIYDVSKRPSERPDRFSGSKSGTSASLAISDLRSEDEADYYCQSFDSSGTWIFGGGTKLTVL
notes: as for B1
In turn, B4 returned an EC50 in assay [2] of no more than 0.2 µg/mL.

B5: anti-CD300c monoclonal antibody SK17 (antibody, V domains shown)
VH: EVQLLESGGGLVQPGGSLRLSCAASGFTFSSYYWSWVRQAPGKGLEWVSTITGSGGSTDYANSVKGRFTISRDNSKNTLYLQMNSLRAEDTAVYYCATGGGIFDYWGQGTLVTVSS
VL: EIVLTQSPGTLSLSPGERATLSCQASQTISNYLNWYQQKPGQAPRLLIYDASNRATGIPDRFSGSGSGTDFTLTISRLEPEDFAVYYCQQYNSYPPSFGQGTKVEIK
notes: as for B1
Take B5: in assay [2], the EC50 was no more than 0.2 µg/mL.

B6: anti-CD300c monoclonal antibody CK1 (antibody, V domains shown)
VH: EVQLLESGGGLVQPGGSLRLSCAASGFTFSRYAMTWVRQAPGKGLEWVSSMSGTGGTTYYADSVKGRFTISRDNSKNTLYLQMNSLRAEDTAVYYCARGAYGFDHWGQGTLVTVSS
VL: EIVLTQSPGTLSLSPGERATLSCRASQSIGNYLNWYQQKPGQAPRLLIYDASNLETGIPDRFSGSGSGTDFTLTISRLEPEDFAVYYCQQSSAIPYTFGQGTKVEIK
notes: Selected as scFv phage clone (kappa library); expressed from separate heavy and light chain vectors in 293T cells, purified on protein A
With B6, in assay [2], the EC50 is no more than 0.2 µg/mL.

B7: anti-CD300c monoclonal antibody CL7 (antibody, V domains shown)
VH: EVQLLESGGGLVQPGGSLRLSCAASGFTFSRYAMSWVRQAPGKGLEWVSAISGSGGSTYYADSVKGRFTISRDNSKNTLYLQMNSLRAEDTAVYYCARSSQGIFDIWGQGTLVTVSS
VL: QSVLTQPPSASGTPGQRVTISCSGNNIGTRRVHWYQQLPDTAPKLLIYSKNNRPSGVPDRFSGSKSGTSASLAISGLRSEDEADYYCAAWDDSLSGPVFGGGTKLTVL
notes: as for B1
Regarding B7, in assay [1], the “cancer cell proliferation inhibitory effect, CT26 mouse colorectal cancer cell line, CCK-8, 10 ug/mL antibody, 5 days” value amounted to 66%. For the same molecule, the binding result in assay [3] was “no binding”. The EC50 in assay [2] was no more than 0.2 µg/mL.

B8: anti-CD300c monoclonal antibody CL9 (antibody, V domains shown)
VH: EVQLLESGGGLVQPGGSLRLSCAASGFTFSSYYWSWVRQAPGKGLEWVSAISGSGGSTYYADSVKGRFTISRDNSKNTLYLQMNSLRAEDTAVYYCARIDVYGFDIWGQGTLVTVSS
VL: QSVLTQPPSASGTPGQRVTISCSGSTSNIGTNYVYWYQQLPGTAPKLLIYDNNNRPSGVPDRFSGSKSGTSASLAISGLRSEDEADYYCQTWDSSTDVVFGGGTKLTVL
notes: as for B1
In the case of B8, the EC50 in assay [2] was no more than 0.2 µg/mL.

B9: anti-CD300c monoclonal antibody CL6 (antibody, V domains shown)
VH: EVQLLESGGGLVQPGGSLRLSCAASGFTFSSYGMHWVRQAPGKGLEWVSAISGSGGSTYYADSVKGRFTISRDNSKNTLYLQMNSLRAEDTAVYYCAVSGAGRGFFDYWGQGTLVTVSS
VL: QSVLTQPPSASGTPGQRVTISCSGSSSNIGSNYVYWYQQLPGTAPKLLIYEDNKRPSGVPDRFSGSKSGTSASLAISGLRSEDEADYYCSSYTSSSTVIFGGGTKLTVL
notes: as for B1
Consider B9, for which the EC50 in assay [2] is no more than 0.2 µg/mL.

B10: anti-CD300c monoclonal antibody SL18 (antibody, V domains shown)
VH: RVQLLESGGGLVQPGGSLRLSCAASGFTFSDYHMHWVRQAPGKGLEWVSTISSSGGYTYYAESVKSRFTISRDNSKNTLYLQMNSLRAEDTAVYYCARSIRLPLDYWGQGTLVTVSS
VL: QSVLTQPPSASGTPGQRVTISCSGNNIGSKGVHWYQQLPGTAPKLLIYEDSKRPSGVRDRFSGSKSGTSASLAISGLRSEDEADYYCQSYDSTKGVVFGGGTKLTVL
notes: as for B1
Consider B10, for which the “cancer cell proliferation inhibitory effect, CT26 mouse colorectal cancer cell line, CCK-8, 10 ug/mL antibody, 5 days” value in assay [1] came out at 38%. The molecule also showed an EC50 in assay [2] of no more than 0.2 µg/mL.

B11: anti-CD300c monoclonal antibody SK12 (antibody, V domains shown)
VH: RVQLLESGGGLVQPGGSLRLSCAASGFTFSSYAMHWVRQAPGKGLEWVSAISGSGGDTYHADSVKGRFTISRDNSKNTLYLQMNSLRAEDTAVYYCTRGLSGFDYWGQGTLVTVSS
VL: EIVLTQSPGTLSLSPGERATLSCRASQSISSYLNWYQQKPGQAPRLLIYDASNRAPGIPDRFSGSGSGTDFTLTISRLEPEDFAVYYCQQSYSIPITFGQGTKVEIKF
notes: as for B1
Consider B11, for which the concentration giving a half-maximal response (EC50) in assay [2] is no more than 0.2 µg/mL.

B12: anti-CD300c monoclonal antibody CL4 (antibody, V domains shown)
VH: RVQLLESGGGLVQPGGSLRLSCAASGFTFGSNYMSWVRQAPGKGLEWVSTISGSGTSTYYADSLKGRFTISRDNSKNTLYLQMNSLRAEDTAVYYCARGMWGMDVWGQGTLVTVSS
VL: QSVLTQPPSASGTPGQRVTISCTGKHRHTVNWYQLLPGTAPKLLIYLDSERPSGVPDRFSGSKSGTSASLAISGLRSEDEADYYCQSYDSSSVVFGGGTKLTVL
notes: as for B1
B12 registered an EC50 in assay [2] of no more than 0.2 µg/mL.

B13: anti-CD300c monoclonal antibody SK14 (antibody, V domains shown)
VH: EVQLLESGGGLVQPGGSLRLSCAASGFTFSNFAIAWVRQAPGKGLEWVSAISGRGTSTYYADSVKGRFTISRDNSKNTLYLQMNSLRAEDTAVYYCARGVSGFDSWGQGTLVTVSS
VL: EIVLTQSPGTLSLSPGERATLSCRASQSISSHLAWYQQKPGQAPRLLIYDTSNRATGIPDRFSGSGSGTDFTLTISRLEPEDFAVYYCQQSYSTPFTFGQGTKVEIK
notes: as for B1
In assay [2], B13 returned an EC50 of no more than 0.2 µg/mL.

B14: anti-CD300c monoclonal antibody SK13 (antibody, V domains shown)
VH: RVQLLESGGGLVQPGGSLRLSCAASGFTFSDYAMSWVRQAPGKGLEWVSSISSSSSYIYYTDSVKGRFTISRDNSKNTLYLQMNSLRAEDTAVYYCARGGYGFDYWGQGTLVTVSS
VL: EIVLTQSPGTLSLSPGERATLSCRASQSISSYLNWYQQKPGQAPRLLIYSASSRPQGIPDRFSGSGSGTDFTLTISRLEPEDFAVYYCQQYDDLPFTFGQGTKVEIK
notes: as for B1
For B14, the EC50 in assay [2] is no more than 0.2 µg/mL.

One may read the EC50 as the concentration at which the effect is half-maximal. Low readings indicate a more potent agent, high ones a less potent agent.
